# Laboratory results reported in patent US20030194743A1 (DYAX, published 2003).
# Primed or numbered codes have the meaning given here. No end group written: not given here. FITC′ = fluorescein label (fitc)
# B1: DX221 (peptide)
# peptide: Ac-WTDSLTGLWFPDGGPGPEGGGK
# modifications: also: fluorescein-labeled, site not given here
# notes: synthetic
# B2: DX876 (peptide)
# peptide: Ac-WYDPLTKLWLGGK(FITC′)
# notes: synthetic
# B3: 453-02-B05 (peptide)
# peptide: VHYDSLTKMWTR
# notes: also called PhD-02-B05
# B4: 453-01-B07 (peptide)
# peptide: VPFCDLLTKHCFEA
# notes: also called TN8-01-B07
# B5: 453-02-C04 (peptide)
# peptide: WTDSLTGLWFPD
# notes: also called PhD-02-C04
# B6: 453-01-A08 (peptide)
# peptide: KEPCYFYWECAVS
# notes: also called TN7-01-A08
# B7: 453-01-C08 (peptide)
# peptide: HVDCLLHPKACYKY
# notes: also called TN8-01-C08
# B8: 453-02-D05 (peptide)
# peptide: YFDQLTHLSIKK
# notes: also called PhD-02-D05
# B9: 453-02-B02 (peptide)
# peptide: GIYDKLTRAWLP
# notes: also called PhD-02-B02
# B10: 453-01-B04 (peptide)
# peptide: KSKCFFPWECQQA
# notes: also called TN7-01-B04
# B11: 453-01-F05 (peptide)
# peptide: SRLCHMDELTHVCVHF
# notes: also called TN10-01-F05
# B12: 453-01-G11 (peptide)
# peptide: LNACDIVHPNYCSGM
# notes: also called TN9-01-011
# B13: 453-02-C12 (peptide)
# peptide: GYDVLTKLYFVP
# notes: also called PhD-02-C12
# B14: 453-01-G06 (peptide)
# peptide: FHPCDMLTGIWCQPN
# notes: also called TN9-01-G06
# B15: 453-01-D11 (peptide)
# peptide: AMKCYFPWECANG
# notes: also called TN7-01-D11
# B16: 453-01-H05 (peptide)
# peptide: GGNCYTDSLTKLHFCMGD
# notes: also called TN12-01-H05
# Molecular target: T1, B lymphocyte stimulator protein (BLyS) (UniProt Q9Y275 134-285, biotinylated (b-BLyS) in phage screening and phage ELISA; unlabeled in fluorescence anisotropy and column tests)
# T1 construct: also called b-BLyS; biotinylated recombinant BLyS
# Assay: fluorescence anisotropy
row,Kd [nM],Binder
1,3000,B1

# Molecular target: T1, B lymphocyte stimulator protein (BLyS)
# Assay: fluorescence anisotropy
# Remark: another data set of the same source
row,Kd [nM],Binder
1,171,B2

# Molecular target: T1, B lymphocyte stimulator protein (BLyS)
# Assay: phage ELISA on biotinylated BLyS
row,ELISA signal [OD630],Binder
1,0.6,B3
2,1.4,B4
3,1,B5
4,1.2,B6
5,1.2,B7
6,0.8,B8
7,0.6,B9
8,0.8,B10
9,1,B11
10,0.8,B12
11,0.8,B13
12,1.2,B14
13,1,B15
14,1,B16

# Molecular target: T1, B lymphocyte stimulator protein (BLyS)
# Assay: not stated at this place (fluorescence anisotropy elsewhere); reference in indirect phage ELISA
row,Kd [nM],Binder
1,700,B4
